As usually defined, the EC50 is the concentration at which the effect is half-maximal. The term Kd denotes a measure of binding affinity in units of concentration. As a reminder, the koff is the rate constant with which the complex falls apart. As a reminder, the kon is a measure of how fast the partners come together.

Experimental findings from US20230138315A1 (JIANGSU HENGRUI MEDICINE, published 2023) are described below.

Assay [1] deals with T1, cynomolgus monkey ANGPTL3(17-460)-His (cynomolgus monkey, UniProt Q9Y5C1 17-460 (human entry), biotin-labelled in the ELISA and HTRF assays (sites not given)).
T1 construct: also called full-length cynomolgus monkey ANGPTL3; Cyno ANGPTL3
T1 chain: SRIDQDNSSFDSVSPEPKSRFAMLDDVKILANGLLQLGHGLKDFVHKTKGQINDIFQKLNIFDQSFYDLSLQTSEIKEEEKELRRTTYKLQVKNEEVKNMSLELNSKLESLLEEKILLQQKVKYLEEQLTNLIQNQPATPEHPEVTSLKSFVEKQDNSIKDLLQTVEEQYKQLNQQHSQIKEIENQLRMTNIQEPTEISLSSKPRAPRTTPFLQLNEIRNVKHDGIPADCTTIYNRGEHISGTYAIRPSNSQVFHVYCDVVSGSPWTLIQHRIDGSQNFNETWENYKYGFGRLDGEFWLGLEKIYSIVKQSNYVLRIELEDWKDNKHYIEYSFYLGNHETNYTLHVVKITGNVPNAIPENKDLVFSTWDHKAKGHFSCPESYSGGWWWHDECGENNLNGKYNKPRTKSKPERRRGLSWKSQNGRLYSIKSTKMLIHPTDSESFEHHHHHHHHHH
Description: ELISA; biotin-labelled antigen on streptavidin-coated plate. Here is the method: (§1) An anti-ANGPTL3 antibody inhibited or interfered with at least one activity of an ANGPTL3 protein by binding to the ANGPTL3 protein. The binding activity of the anti-ANGPTL3 antibody to the ANGPTL3 antigen was tested by an ELISA assay. The ANGPTL3 protein (human ANGPTL3(17-170)-mFc) was immobilized on a 96-well microplate by binding to the goat anti-mouse IgG coated on the microplate, and the binding activity of the antibody to the ANGPTL3 was determined according to the intensity of the signal after the antibody was added.
(§2) Streptavidin (Sigma, S4762-5MG) was diluted to a concentration of 3 μg/mL with PBS buffer (Shanghai BasalMedia, B320, pH 7.4), added to a 96-well microplate (Corning, CLS3590-100EA) at 50 μL/well, and then incubated in an incubator at 37° C. for 3 h or incubated at 4° C. overnight (16-18 h). After the liquid was discarded, a PBS-diluted 5% skim milk (BD, 232100) blocking solution was added at 250 μL/well, and the mixture was incubated in an incubator at 37° C. for 3 h or incubated at 4° C. overnight (16-18 h) for blocking. […] The mixture was incubated in an incubator at 37° C. for 2 h. After the incubation was finished, the reaction solution in the microplate was discarded. The plate was washed 3 times with PBST, and then a test antibody that was diluted with a sample diluent to different concentrations was added at […]. The mixture was incubated in an incubator at 37° C. for 2 h.

The target of the next assay is T2, rat ANGPTL3(17-455)-His (rat, biotin-labelled in the ELISA and HTRF assays (sites not given)).
T2 construct: also called full-length rat ANGPTL3
T2 chain: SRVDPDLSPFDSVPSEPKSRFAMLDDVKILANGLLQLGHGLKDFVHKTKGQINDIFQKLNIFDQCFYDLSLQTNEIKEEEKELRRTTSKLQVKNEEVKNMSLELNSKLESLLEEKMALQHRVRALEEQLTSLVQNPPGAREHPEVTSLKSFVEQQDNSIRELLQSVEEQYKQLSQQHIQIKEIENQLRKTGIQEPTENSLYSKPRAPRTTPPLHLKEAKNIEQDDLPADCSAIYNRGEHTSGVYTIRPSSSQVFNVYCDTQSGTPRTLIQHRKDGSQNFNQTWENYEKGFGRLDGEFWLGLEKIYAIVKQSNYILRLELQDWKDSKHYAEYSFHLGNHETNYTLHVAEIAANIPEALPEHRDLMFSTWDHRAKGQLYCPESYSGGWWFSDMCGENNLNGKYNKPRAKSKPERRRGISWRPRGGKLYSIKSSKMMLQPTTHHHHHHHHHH
The description is as above. As for the experimental part: as §1, §2

The target in assay [2] is T1, cynomolgus monkey ANGPTL3(17-460)-His. Nature of the assay: SPR (Biacore T200); antibody captured on Protein A chip, antigen in flow; 1:1 Langmuir fit. From the text:
(§3) Biacore was used to determine the affinity of the test anti-ANGPTL3 antibodies for human, monkey, rat and mouse ANGPTL3, and the method is as follows:
(§4) Reaction signals were detected in real time using a Biacore T200 instrument to obtain association and dissociation curves. After each cycle of dissociation was completed, the biochip was washed and regenerated using a glycine-hydrochloric acid regeneration solution (Cat. # BR-1003-54, GE, pH 1.5). The running buffer for the experiment was 1×HBS-EP buffer (Cat. # BR-1001-88, GE). The data obtained from the experiment were fitted with the (1:1) Langmuir model using GE Biacore T200 evaluation software (version 3.0) to obtain affinity values.

Assay [3] addresses T3, human-ANGPTL3 (R&D, 3829-AN) (human, UniProt Q9Y5C1 17-460).
T3 construct: Bought antigen used in the Biacore assay
T3 sequence (looked up): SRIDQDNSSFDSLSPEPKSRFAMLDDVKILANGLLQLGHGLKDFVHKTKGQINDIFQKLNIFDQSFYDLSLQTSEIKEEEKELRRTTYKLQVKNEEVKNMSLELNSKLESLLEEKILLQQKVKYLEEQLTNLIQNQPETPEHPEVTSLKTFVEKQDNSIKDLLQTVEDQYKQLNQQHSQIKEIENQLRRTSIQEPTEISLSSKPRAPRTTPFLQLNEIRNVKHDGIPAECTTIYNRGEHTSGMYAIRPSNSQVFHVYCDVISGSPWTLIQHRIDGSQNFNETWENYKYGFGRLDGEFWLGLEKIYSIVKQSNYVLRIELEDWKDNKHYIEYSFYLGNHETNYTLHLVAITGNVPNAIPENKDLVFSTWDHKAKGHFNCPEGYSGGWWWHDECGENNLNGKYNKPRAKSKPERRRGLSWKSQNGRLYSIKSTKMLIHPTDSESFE
Described as above.
From the text: as §3, §4

B1: P3G (antibody, human IgG4 S228P, kappa, V domains shown)
VH: QVQLVQSGAEVKKPGASVKVSCKSSGYTFTDYYLHWLRQAPGQGPEWMGWISPNSGGTSYAQKFQGRVTMTRDTSISTAYMELSSLRSDDTAVYYCARDIATLGNFFTYGMDVWGQGTTVTVSS
VL: DIQLTQSPSSLSASVGDRVTITCRASQGIRNDLGWYQQKPGKAPKLLIYAASSLQSGVPSRFSGSGSGTDFTLTISSLQPEDFATYYCQQSYSSWTFGQGTKVEIKR
notes: also called anti-ANGPTL3 antibody P3G; P3 (variable regions)
In the case of B1, the EC50 in assay [1] amounted to 4.55 nM. The molecule further showed an EC50 with rat ANGPTL3(17-455)-His of 1.44 nM. For the same molecule, in assay [2], the Kd turned out to be 0.204 nM, the koff came out at 0.000847 s⁻¹ and the kon worked out at 4.15e+06 M⁻¹ s⁻¹. In assay [3], the Kd came to 0.285 nM, the koff stood at 0.000731 s⁻¹ and the kon stood at 2.56e+06 M⁻¹ s⁻¹.

B2: P8G (antibody, human IgG4 S228P, kappa, V domains shown)
VH: QVQLVQSGAEVKKPGASVKVSCKASGYTFTSYDINWVRQAPGQGLEWVGLINPRDDSTSYAQKFQGRVTMTRDTSTSTMYMELSSLRSEDTAVYFCARDLGSIREVLYYGMDVWGQGTTVTVSS
VL: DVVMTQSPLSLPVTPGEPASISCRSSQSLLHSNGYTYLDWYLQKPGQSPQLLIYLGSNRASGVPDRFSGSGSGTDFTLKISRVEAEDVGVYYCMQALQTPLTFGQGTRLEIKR
notes: also called anti-ANGPTL3 antibody P8G; P8 (variable regions)
Consider B2, for which, in assay [1], a half-maximal response (EC50) required 2.53 nM. Moreover, the EC50 with rat ANGPTL3(17-455)-His worked out at 2.12 nM. For the same molecule, in assay [2], the Kd is 0.0593 nM, the koff was 0.000497 s⁻¹ and the kon turned out to be 8.37e+06 M⁻¹ s⁻¹. In addition, in assay [3], the Kd worked out at 0.151 nM, the koff was found to be 0.000333 s⁻¹ and the kon is 2.2e+06 M⁻¹ s⁻¹.

B3: P8BG (antibody, human IgG4 S228P, kappa, V domains shown)
VH: QVQLVQSGAEVKKPGASVKVSCKASGYTFTSYDINWVRQAPGQGLEWVGLINPREDSTSYAQKFQGRVTMTRDTSTSTMYMELSSLRSEDTAVYFCARDLGSIREVLYYGMDVWGQGTTVTVSS
VL: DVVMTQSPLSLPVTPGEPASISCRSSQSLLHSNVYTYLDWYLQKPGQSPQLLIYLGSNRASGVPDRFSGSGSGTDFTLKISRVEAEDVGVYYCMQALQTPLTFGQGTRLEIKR
notes: also called anti-ANGPTL3 antibody P8BG; P8B (variable regions)
B3 displayed an EC50 in assay [1] of 0.2 nM. For the same molecule, in the assay with rat ANGPTL3(17-455)-His, the EC50 is 0.528 nM. In assay [2], the affinity, expressed as Kd, was 0.0769 nM; the koff was determined as 0.000398 s⁻¹; the kon came to 5.18e+06 M⁻¹ s⁻¹. Moreover, in assay [3], the Kd stood at 0.045 nM, the koff stood at 0.000276 s⁻¹ and the kon was 6.14e+06 M⁻¹ s⁻¹.
